Experimental data as given in publication PMC12463012, “Sequence‐ and Docking‐Site‐Dependent Contributions to Multi‐Site Phosphorylation of an Intrinsically Disordered MAPK Substrate” (Advanced Science, 2025).

Target: the molecule itself
Assay: SEC-MALS; SEC-MALLS at 4 °C; 20 µL of JIP1^SH3 at 5.6 mg mL^-1 injected at 0.5 mL min^-1 on Superdex 200 10/300 GL in 50 mM HEPES pH 7.1, 150 mM NaCl, 2 mM DTT

B1: JIP1^SH3 (JIP1 IDR residues 1–450 linked to the SH3 domain of JIP1, residues 489–553, via a (GS)3G linker) (domain or fragment)
chain: GHMMAERESGGLGGGAASPPAASPFLGLHIASPPNFRLTHDISLEEFEDEDLSEITDECGISLQCKDTLSLRPPRAGLLSAGGGGAGSRLQAEMLQMDLIDATGDTPGAEDDEEDDDEERAARRPGAGPPKAESGQEPASRGQGQSQGQSQGPGSGDTYRPKRPTTLNLFPQVPRSQDTLNNNSLGKKHSWQDRVSRSSSPLKTGEQTPPHEHICLSDELPPQSGPAPTTDRGTSTDSPCRRSTATQMAPPGGPPAAPPGGRGHSHRDRIHYQADVRLEATEEIYLTPVQRPPDAAEPTSAFLPPTESRMSVSSDPDPAAYPSTAGRPHPSISEEEEGFDCLSSPERAEPPGGGWRGSLGEPPPPPRASLSSDTSALSYDSVKYTLVVDEHAQLELVSLRPCFGDYSDESDSATVYDNCASVSSPYESAIGEEYEEAPRPQPPACLSEDSTPDGSGSGSGQEQTHRAIFRFVPRHEDELELEVDDPLLVELQAEDYWYEAYNMRTGARGVFPAYYAIEVTKEPEH
notes: extension left at the N-terminus after TEV cleavage; (GS)3G linker that replaces residues 451-488 of JIP1; Residues 451-488 of JIP1 replaced by the glycine-serine linker because they are prone to aggregation; also called JIP1^SH3 dimer; not shown: thioredoxin, N-terminal, cleaved; His6, N-terminal, cleaved
  stoichiometry N: 2
